Data on four sequences can be found in publication PMC5703881.

Test systems include 71F12GL-SFH (human); 71F12GL-SF (human); 72H11 IgG (human).
Common to all, as to experiment: SPR
Holding throughout (details): Bead assay: PBS with 1% BSA, antibody 0.2 or 2 ug/ml, 1 h, 22 C; SPR conditions not in the material

In series [1] the test system is 71F12 GL (germline-reverted) (human).

In turn, GGGGGGGGT [9-mer G8T] gave a fold reduction in affinity (fold lower affinity than for GGGGGGTTT) with 71F12GL-SFH (human) of 150.

In turn, GGGGGGTTT [9-mer G6T3] displayed a fold reduction in affinity (fold lower affinity than 71F12GL-SFH) in the series on 71F12GL-SF (human) of 30.

The term Kd denotes the free concentration of one partner at which half of the binding sites on the other are occupied at equilibrium, for simple one-to-one binding. “TAATACGACTCACTATAGGG (double strand) [biotinylated 20-bp dsDNA (Fig. 4A)]”: in the series on 72H11 IgG (human), the Kd came out at 0.4 µM.

TTTTT [5-mer T5] yielded a fold reduction in affinity (fold lower affinity than 71F12) in series [1] of 50.
